Experimental data published in EP4663654A1 (Hangzhou Sciwind Biosciences Co., Ltd., dated 2025).
Blank lines part the entries; values can stand above or below the binder they belong to. Starred links: 1 amine or outer side, 2 acyl side, 3 side chain; linkers in the order of their positions; H or OH if unused. Non-standard residues stand in square brackets, D forms with d. *: point of attachment. C20 diacid = O=C(O)CCCCCCCCCCCCCCCCCCC(=O)*; γGlu = O=C(O)[C@H](CCC(=O)[*:2])N[*:1]; βAsp = O=C(O)[C@H](CC(=O)[*:2])N[*:1]; Hyp = O=C(O)[C@@H]1C[C@@H](O)CN1

Biological target: T1, human amylin receptor (AMY3) on CHO-K1/Ga15/AMY3 amylin receptor/CRE-luc cells (human, UniProt P30988 25-474; O60896 24-148)
T1 sequence (looked up) 1: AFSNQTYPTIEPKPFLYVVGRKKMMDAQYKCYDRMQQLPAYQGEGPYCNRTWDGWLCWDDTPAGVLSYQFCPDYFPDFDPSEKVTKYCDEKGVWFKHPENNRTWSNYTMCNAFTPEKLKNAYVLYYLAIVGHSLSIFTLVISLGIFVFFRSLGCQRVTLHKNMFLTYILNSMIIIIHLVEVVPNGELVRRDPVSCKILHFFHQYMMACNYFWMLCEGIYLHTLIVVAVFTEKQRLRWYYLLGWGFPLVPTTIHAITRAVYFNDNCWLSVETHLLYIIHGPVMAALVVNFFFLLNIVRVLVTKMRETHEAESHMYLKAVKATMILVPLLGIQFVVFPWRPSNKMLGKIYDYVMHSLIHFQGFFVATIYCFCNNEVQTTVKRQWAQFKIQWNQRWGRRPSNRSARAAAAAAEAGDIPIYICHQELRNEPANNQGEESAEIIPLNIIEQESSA
T1 sequence (looked up) 2: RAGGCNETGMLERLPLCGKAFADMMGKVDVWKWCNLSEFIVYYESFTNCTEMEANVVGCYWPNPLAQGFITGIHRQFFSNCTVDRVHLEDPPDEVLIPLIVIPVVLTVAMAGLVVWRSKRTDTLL
Assay: cell-based or functional assay

B1: polypeptide derivative M11 (peptide)
peptide: {C20 diacid}-EASQLSTAATQRLADFLRHFTDRDRDILPPTNVGSNTP-NH2
SMILES: CC[C@H](C)[C@H](NC(=O)[C@H](CC(=O)O)NC(=O)[C@H](CCCNC(=N)N)NC(=O)[C@H](CC(=O)O)NC(=O)[C@H](CCCNC(=N)N)NC(=O)[C@H](CC(=O)O)NC(=O)[C@@H](NC(=O)[C@H](Cc1ccccc1)NC(=O)[C@H](Cc1c[nH]cn1)NC(=O)[C@H](CCCNC(=N)N)NC(=O)[C@H](CC(C)C)NC(=O)[C@H](Cc1ccccc1)NC(=O)[C@H](CC(=O)O)NC(=O)[C@H](C)NC(=O)[C@H](CC(C)C)NC(=O)[C@H](CCCNC(=N)N)NC(=O)[C@H](CCC(N)=O)NC(=O)[C@@H](NC(=O)[C@H](C)NC(=O)[C@H](C)NC(=O)[C@@H](NC(=O)[C@H](CO)NC(=O)[C@H](CC(C)C)NC(=O)[C@H](CCC(N)=O)NC(=O)[C@H](CO)NC(=O)[C@H](C)NC(=O)[C@H](CCC(=O)O)NC(=O)CCCCCCCCCCCCCCCCCCC(=O)O)[C@@H](C)O)[C@@H](C)O)[C@@H](C)O)C(=O)N[C@@H](CC(C)C)C(=O)N1CCC[C@H]1C(=O)N1CCC[C@H]1C(=O)N[C@H](C(=O)N[C@@H](CC(N)=O)C(=O)N[C@H](C(=O)NCC(=O)N[C@@H](CO)C(=O)N[C@@H](CC(N)=O)C(=O)N[C@H](C(=O)N1CCC[C@H]1C(N)=O)[C@@H](C)O)C(C)C)[C@@H](C)O
- EC50/nM, CRE-luciferase reporter in amylin receptor/CRE-luc CHO cells: 0.004 nM
- Relative activity (the EC50 ratio of Cagrilintide to the compound): 110%

B3: polypeptide derivative M8 (peptide)
peptide: {C20 diacid-γGlu}-ASQLSTAVTQRLADFLRHFTDRDRDILPPTNVGSNTP-NH2
SMILES: CC[C@H](C)[C@H](NC(=O)[C@H](CC(=O)O)NC(=O)[C@H](CCCNC(=N)N)NC(=O)[C@H](CC(=O)O)NC(=O)[C@H](CCCNC(=N)N)NC(=O)[C@H](CC(=O)O)NC(=O)[C@@H](NC(=O)[C@H](Cc1ccccc1)NC(=O)[C@H](Cc1c[nH]cn1)NC(=O)[C@H](CCCNC(=N)N)NC(=O)[C@H](CC(C)C)NC(=O)[C@H](Cc1ccccc1)NC(=O)[C@H](CC(=O)O)NC(=O)[C@H](C)NC(=O)[C@H](CC(C)C)NC(=O)[C@H](CCCNC(=N)N)NC(=O)[C@H](CCC(N)=O)NC(=O)[C@@H](NC(=O)[C@@H](NC(=O)[C@H](C)NC(=O)[C@@H](NC(=O)[C@H](CO)NC(=O)[C@H](CC(C)C)NC(=O)[C@H](CCC(N)=O)NC(=O)[C@H](CO)NC(=O)[C@H](C)NC(=O)CC[C@H](NC(=O)CCCCCCCCCCCCCCCCCCC(=O)O)C(=O)O)[C@@H](C)O)C(C)C)[C@@H](C)O)[C@@H](C)O)C(=O)N[C@@H](CC(C)C)C(=O)N1CCC[C@H]1C(=O)N1CCC[C@H]1C(=O)N[C@H](C(=O)N[C@@H](CC(N)=O)C(=O)N[C@H](C(=O)NCC(=O)N[C@@H](CO)C(=O)N[C@@H](CC(N)=O)C(=O)N[C@H](C(=O)N1CCC[C@H]1C(N)=O)[C@@H](C)O)C(C)C)[C@@H](C)O
- EC50/nM, CRE-luciferase reporter in amylin receptor/CRE-luc CHO cells: 0.049 nM
- Relative activity (the EC50 ratio of Cagrilintide to the compound): 53%

B4: polypeptide derivative M9 (peptide)
peptide: {C20 diacid-γGlu}-ASQLSTAVLQRLADFLRHSSNNLKPILPPTNVGSNT[Hyp]-NH2
SMILES: CC[C@H](C)[C@H](NC(=O)[C@@H]1CCCN1C(=O)[C@H](CCCCN)NC(=O)[C@H](CC(C)C)NC(=O)[C@H](CC(N)=O)NC(=O)[C@H](CC(N)=O)NC(=O)[C@H](CO)NC(=O)[C@H](CO)NC(=O)[C@H](Cc1c[nH]cn1)NC(=O)[C@H](CCCNC(=N)N)NC(=O)[C@H](CC(C)C)NC(=O)[C@H](Cc1ccccc1)NC(=O)[C@H](CC(=O)O)NC(=O)[C@H](C)NC(=O)[C@H](CC(C)C)NC(=O)[C@H](CCCNC(=N)N)NC(=O)[C@H](CCC(N)=O)NC(=O)[C@H](CC(C)C)NC(=O)[C@@H](NC(=O)[C@H](C)NC(=O)[C@@H](NC(=O)[C@H](CO)NC(=O)[C@H](CC(C)C)NC(=O)[C@H](CCC(N)=O)NC(=O)[C@H](CO)NC(=O)[C@H](C)NC(=O)CC[C@H](NC(=O)CCCCCCCCCCCCCCCCCCC(=O)O)C(=O)O)[C@@H](C)O)C(C)C)C(=O)N[C@@H](CC(C)C)C(=O)N1CCC[C@H]1C(=O)N1CCC[C@H]1C(=O)N[C@H](C(=O)N[C@@H](CC(N)=O)C(=O)N[C@H](C(=O)NCC(=O)N[C@@H](CO)C(=O)N[C@@H](CC(N)=O)C(=O)N[C@H](C(=O)N1C[C@H](O)C[C@H]1C(N)=O)[C@@H](C)O)C(C)C)[C@@H](C)O
- EC50/nM, CRE-luciferase reporter in amylin receptor/CRE-luc CHO cells: 0.026 nM
- Relative activity (the EC50 ratio of Cagrilintide to the compound): 100%

Continued, values first:

- EC50/nM, CRE-luciferase reporter in amylin receptor/CRE-luc CHO cells: 0.034 nM
- Relative activity (the EC50 ratio of Cagrilintide to the compound): 78%
B2: polypeptide derivative M12 (peptide)
peptide: {C20 diacid-βAsp}-ASQLSTAATQRLADFLRHFTDRDRDILPPTNVGSNTP-NH2
SMILES: CC[C@H](C)[C@H](NC(=O)[C@H](CC(=O)O)NC(=O)[C@H](CCCNC(=N)N)NC(=O)[C@H](CC(=O)O)NC(=O)[C@H](CCCNC(=N)N)NC(=O)[C@H](CC(=O)O)NC(=O)[C@@H](NC(=O)[C@H](Cc1ccccc1)NC(=O)[C@H](Cc1c[nH]cn1)NC(=O)[C@H](CCCNC(=N)N)NC(=O)[C@H](CC(C)C)NC(=O)[C@H](Cc1ccccc1)NC(=O)[C@H](CC(=O)O)NC(=O)[C@H](C)NC(=O)[C@H](CC(C)C)NC(=O)[C@H](CCCNC(=N)N)NC(=O)[C@H](CCC(N)=O)NC(=O)[C@@H](NC(=O)[C@H](C)NC(=O)[C@H](C)NC(=O)[C@@H](NC(=O)[C@H](CO)NC(=O)[C@H](CC(C)C)NC(=O)[C@H](CCC(N)=O)NC(=O)[C@H](CO)NC(=O)[C@H](C)NC(=O)C[C@H](NC(=O)CCCCCCCCCCCCCCCCCCC(=O)O)C(=O)O)[C@@H](C)O)[C@@H](C)O)[C@@H](C)O)C(=O)N[C@@H](CC(C)C)C(=O)N1CCC[C@H]1C(=O)N1CCC[C@H]1C(=O)N[C@H](C(=O)N[C@@H](CC(N)=O)C(=O)N[C@H](C(=O)NCC(=O)N[C@@H](CO)C(=O)N[C@@H](CC(N)=O)C(=O)N[C@H](C(=O)N1CCC[C@H]1C(N)=O)[C@@H](C)O)C(C)C)[C@@H](C)O

- EC50/nM, CRE-luciferase reporter in amylin receptor/CRE-luc CHO cells: 0.034 nM
- Relative activity (the EC50 ratio of Cagrilintide to the compound): 78%
B5: polypeptide derivative M13 (peptide)
peptide: {C20 diacid}-DASQLSTAATQRLADFLRHFTDRDRDILPPTNVGSNTP-NH2
SMILES: CC[C@H](C)[C@H](NC(=O)[C@H](CC(=O)O)NC(=O)[C@H](CCCNC(=N)N)NC(=O)[C@H](CC(=O)O)NC(=O)[C@H](CCCNC(=N)N)NC(=O)[C@H](CC(=O)O)NC(=O)[C@@H](NC(=O)[C@H](Cc1ccccc1)NC(=O)[C@H](Cc1c[nH]cn1)NC(=O)[C@H](CCCNC(=N)N)NC(=O)[C@H](CC(C)C)NC(=O)[C@H](Cc1ccccc1)NC(=O)[C@H](CC(=O)O)NC(=O)[C@H](C)NC(=O)[C@H](CC(C)C)NC(=O)[C@H](CCCNC(=N)N)NC(=O)[C@H](CCC(N)=O)NC(=O)[C@@H](NC(=O)[C@H](C)NC(=O)[C@H](C)NC(=O)[C@@H](NC(=O)[C@H](CO)NC(=O)[C@H](CC(C)C)NC(=O)[C@H](CCC(N)=O)NC(=O)[C@H](CO)NC(=O)[C@H](C)NC(=O)[C@H](CC(=O)O)NC(=O)CCCCCCCCCCCCCCCCCCC(=O)O)[C@@H](C)O)[C@@H](C)O)[C@@H](C)O)C(=O)N[C@@H](CC(C)C)C(=O)N1CCC[C@H]1C(=O)N1CCC[C@H]1C(=O)N[C@H](C(=O)N[C@@H](CC(N)=O)C(=O)N[C@H](C(=O)NCC(=O)N[C@@H](CO)C(=O)N[C@@H](CC(N)=O)C(=O)N[C@H](C(=O)N1CCC[C@H]1C(N)=O)[C@@H](C)O)C(C)C)[C@@H](C)O
